# Data reported in the DeepSol protein solubility set.
# Assay: soluble on expression in E. coli; label from the status in PepcDB or PDB records
row,Sequence,soluble on expression in E. coli
1,MVSLDKAVIARLRKGGEEFEVLVDPYLARDLKEGKEVNFEDLLAAEEVFKDAKKGERASVDELRKIFGTDDVFEIARKIILEGEVQITAEQRREMLEAKRKQIINFISRNTIDPRTNAPHPPSRIERALEEAKVHIDIFKSVEAQVKDIVKALKPILPLKFEEMEIAIKIPPEHTGRAISALYNFGGVTREEWQRDGSWICVMRIPSGMYGDLMDLLGKVAKGEALTKVLRRIG,not soluble
2,MSLDRVDWPHATFSTPVKRIFDTQTTLDFQSSLAIHRIKYHLHKYTTLISHCSDPDPHATASSIAMVNGLMGVLDKLAHLIDETPPLPGPRRYGNLACREWHHKLDERLPQWLQEMLPSEYHEVVPELQYYLGNSFGSSTRLDYGTGHELSFMATVAALDMLGMFPHHRGADVFLLFNKYYTIMRRLILTYTLEPAGSHGVWGLDDHFHLVYILGSSQWQLLDAQAPLQPREILDKSLVREYKDTNFYCQGINFINEVKMGPFEEHSPILYDIAVTVPRWSKVCKGLLKMYSVEVEKKFPVVQHFWFGTGFFPWVNIHHHHHH,soluble
3,MDNEKKSMYEPGVILGGCTLRRQLNDSGEAMVFLAESGNEEKKEVIIKFFKCGYGEDEIKYLDVLTNHEQRRNIVEMLKSFETPEIRLGMVFKRYETDLFGILGDRQRLQPSTIQKYMKGLMEGLQFIHRMDYIHRDIKPENLLIDGETICIADFGETVLSTSDKVVKPGTLPYLTIEHILGYKENTKSMDIWAAACVLGAMFQGSHLFSQNSNLQTIHAIRLLLGNHTKETWPEMDKLPLMQSIELPPVGEKTFSKIENITKEAADLMEQMMKYDPTKRLMASQVLNHEYFKKEASAQAN,not soluble
4,MSLGIIRSILDTDLYKFTTGYAYAKLFPRAYGEFRFIDRNRQGFTEEFAELVRGEIRAMAALSLTRDEKEFLQRELPYLPPIYIDFLDGFRFDPEEVTVSIDAQGHLDIRAQGLLYRVTLWETPILAVISELYYRFIGAKPDWKQVEEVTRSKGELMREHRTTFSIFGMRRRFSLEVEDRVTDILKQYAGESLFGTSNVHLAHKHGLRVSGTHPHEWIQFHGAIYGYKMANYVAMEDWINVYDGDLGTVLTDTYTTDVFMRNFSKKHAMLFTSLRHDSGDPEIFIEKAVRRYEELRVDPKIKYIIFSDSLTPQRAIEIQKLCAGRIKASFGIGTNLTNDVGGGVEPLNIVMKLWKCKMTAKDDWHYCVKLSDVDGKHTGEPEEILLAMNTLGIKPKEGHHHHHH,soluble
5,MNSSSTLQKLLDRRGQAANGNSATQAVQWQEGMNLTLHVNGDSLTMLAEIINLRADPQDDILLRKLLAHAFPGLRLRRGALTINPDENTLVYSYEHDFLALDKTRFENLLANFAETTQELRNTAQRLR,not soluble
6,MGSDKIHHHHHHMGKFLVEREQMRYPVDVYTGKIQAYPEGKPSAIAKIQVDGELMLTELGLEGDEQAEKKVHGGPDRALCHYPREHYLYWAREFPEQAELFVAPAFGENLSTDGLTESNVYMGDIFRWGEALIQVSQPRSPCYKLNYHFDISDIAQLMQNTGKVGWLYSVIAPGKVSADAPLELVSRVSDVTVQEAAAIAWHMPFDDDQYHRLLSAAGLSKSWTRTMQKRRLSGKIEDFSRRLWGK,not soluble
7,SSQKSLFREDWFQNGSFVSLTLYIKDVDRDESNVTFTQQTVTVNLFSARDKSIYEQTWELSHPVVAEQSLVTYFPQKVELKMKKKEEGLLWKQLTSGATLKSSDNTQSSYSSRETASLQSGRFPKQFAVEEDDDEEQDQSKDLLAFFRDIYEKSDEDTRRAMVKSFVESQGKVLSTDWKKVSSQNSRYDNE,soluble
8,MAHHHHHHMHDIYLDNPSTFEILEKMFSLYVNTYPDNELPIGFILMGDFISLKFDYNKNFNDLYIKGFEKLSVLLISKFKLILQNCYLIFIPGKNDPCACKNSIPKMPILPYYIKKFEQNIQSFFSCKKKIIFATNPCRIRHFNKKMIFFRQDILNDLIWSSSINATDDNKNNLQDILISTIVGQSHIYPIPHDNRILKRYSSFLFLYPLPNFICISDNTCNSFISYASDNTSDSIISNSDLSFTKKKTFTVYNVLQHDAKRYVVPI,not soluble
9,MLNVEPSFAEELRSSGVSLSATYLGSVPVVESINVMVSEMRVQVVSECIQHVAATVGVTAAREINPVVSRPTLHGSMKKPR,not soluble
10,MTEYLSVSALTKYIKYKFDQDPHLQSVLIKGELSNFKKHSSGHLYFNVKDKESVISAMMFKGNASKLGFEPKEGDEVLIEARVSVYERRGNYQIYVNKMQLDGIGNLYQKLELLKKKLKKEGYFNQSNKKLIPKYPKKIAVLTASTGAAIRDIHSTINNRYPLVEQIQISTLVQGTQARQDIIEKIQYADSLDVDTIIVGRGGGSIEDLWNFNEEDVVKTIFNCQTPIISAVGHETDFTLSDFVADVRAATPTQAAVIATPDQYELLQQIKQYEYTLSRYIKQYIEHQKKQLNHISSYYKFKQPSLLYDQQIQKRDELERQLNHLLNTKVEKSKHHLKLLQQSFNFKNLNQQITQEKQSIYQLHSRLSKIMSNNITNLKTVLKNKLESLNNLSPTNTMLRGYAIVNKDNEVVTSTHKLNENDQISLTMKDGSVDATVKKVRCNDE,not soluble
11,MGSDKIHHHHHHMTSGLHISTSFDSGAIEVDALDHADDIRLRIRADSHADFRQWFHFRLQGAAGQACRLQFLNAGDCTYPDGWRDYRAVASYDRANWFRVPTRFDGQVLTVEFTPQHDSVWFAYFEPYPEERHLSLLATCQRSPLAKLSHLGSTVDGRDMTRVTVGQPGPGKKTIWMIARQHPGESMAEWFCEGVLQRLTGTGMWAHDPVARKLLESAVFHIVPNMNPDGSARGNLRTNAAGANLNREWMTPSPETSPEVWHVRRAIEATGCDLFFDIHGDEGLPYNFVAGSEMLPSFSEKQREEQTRFIEAFKRVTPDFQDVHGYAASKYNADALKLASKYVGHTFGCLSLTLEMPFKDNADLPDATVGWNGARSALLGTAMLEAILNFLG,not soluble
12,MLTYQVKQGDTLNSIAADFRISTAALLQANPSLQAGLTAGQSIVIPGLPDPYTIPYHIAVSIGAKTLTLSLNNRVMKTYPIAVGKILTQTPTGEFYIINRQRNPGGPFGAYWLSLSKQHYGIHGTNNPASIGKAVSKGCIRMHNKDVIELASIVPNGTRVTINR,soluble
13,MNRRLELYYTRQLLVISKYCQDQTKEIVLPTVGQNIGDSWITDIFVKLREKLVKYTTQVSRPLATKVVQDSQKEVDAQIAEHTKSIIGVDLTPFYRASDIQDVVDTNIAANVALIKSIPNQYVDKLEALVMNAFQTGQTNEDLAKAIAQLGQSTDSRARLIAADQMGKVNGQINKARQLSMGVETYVWQTAKDERVRKDHQHKQGKTFRWDDPPTGGHPGEPIRCRCTALPNYEDILVD,not soluble
14,MAHHHHHHMESLDERWNNQVDNFHIKVNKLRCDMNEYKKGCYNTYNLRNNKNDVFPHLQNNNMKRRELINMNNNYEIKNYLKKPHNQTYILKDNKYVNVDDITFPVSKNISNKVIKTNDEKILENKCCFKLNVRNKRKNEKVIKINEKRWLIATKHVKIERVNKNGVEQSEEKNKKDKNRYIYLEGEEGNLHLYPMYSDSEVGFENISHIEDESLSKVKKENQDDDDIMTTKHLAQWSSDIVHKYLEEAIEKSKSIFQNCNMESRQEEIFKRIKL,not soluble
15,MKPVYLAMNYFGPHEHSIIDFSKLESTPIFLISGDTGAGKSTIFDAMTFALFGSTTNDGTDGRAAKEMRSQFAPADQPTSVTFYFEQGNQLYKIARSPEQYLAKKKGSGLTKKNSTAKLAVVDHVGGVEIESIATKPADVGPEITTILNLTADQFKKIILLPQNDFSEFLKSKTTDKEKILKKIFGTQLYSDFTAELKAEYQTASKTGDQFVADLRVALASATWNDEEQAQLQAVPDNQKIPLLRAFVTTRQSAFDQAQQT,not soluble
16,MGSDKIHHHHHHMFKKVSRDPVHSEIYLYPLEILATDTKVVQRLRFLSQLAGATVVYPGATHTRFAHSLGTMHVAGLYARNLFKESDRIRIVRLAALLHDVGHGPFSHQFDDVVFKRYGYEDGHDEFRNRLITEKLPEEMMRVFNSYNERLKQAVIEDIRESVGEVSLEDAFQEIAKRVVEVYRGEETGSVDFNIIQGPLGADRLDFLLRDSYYSGVGHFAPMNVDRVLRNSLVKEVDGKEILCYHVKVVDNIYSILFSRFMMYKNVYFHKTSRAADLMIQEILLRACEILDLEERLKDLDEFLELTDYSILRELELKGDSETKKLVERFKNRDLWKMVVERPFSAEGFDPSELSLSAARNLIDKIVENIDRVLSSVNVEDSDKSILEEIRDNKEKFFRIDTPYKLTIFHPDEFLQNNVFLYDPKHDEILTVDEYVKKYPAYRLMVSNMIQIVRVYVTEDVREVLFKYGVIPEDGRRVITRW,not soluble
17,MSQVQFSHNPLFCIDIIKTYKPDFTPRVAFILGSGLGALADQIENAVAISYEKLPGFPVSTVHGHAGELVLGHLQGVPVVCMKGRGHFYEGRGMTIMTDAIRTFKLLGCELLFCTNAAGSLRPEVGAGSLVALKDHINTMPGTPMVGLNDDRFGERFFSLANAYDAEYRALLQKVAKEEGFPLTEGVFVSYPGPNFETAAEIRMMQIIGGDVVGMSVVPEVISARHCDLKVVAVSAITNMAEGLSDVKLSHAQTLAAAELSKQNFINLICGFLRKIA,soluble
18,MEQQRSFQTETGGHLYLVPTPIGNLDDMTFRAVKTLTAVDLIAAEDTRNTQKLLNHFEITTKQISFHEHNTQERIPQLIAKLKQGMQIAQVSDAGMPSISDPGHELVNACIDAHIPVVPLPGANAGLTALIASGLAPQPFYFYGFLDRKPKDRKAEIAGLAQRPETLIFYEAPHRLKKTLQNLAAGFGDERPAVLCRELTKRYEEFLRGSLAELANWAATDTVRGEFVVLVGGNPAPTTAATTAVDLSEPIDVQVDRLIAAGEKPNDAIKEVAKLRGAKKQEIYRQYHHLDEE,soluble
19,MSLTSDKIFFHHLDNLRPSLTPVKELKEPVGQIVCTDKGILAVEQNKVLIPPAWNKTFAWGYADLSCRLGTYESDKAVTVYECLSEWGQILCAVCPNPKLVITGGTSTVVCVWEMGTSKEKAKPLTLKQALLGHTDTVTCATASLAYHIIVSGSRDRTCIIWDLNKLSFLTQLRGHRAPVSALCINELTGDIVSCAGTYIHVWSINGNPIVSVNTFTGRSQQIVCCCMSEMNEWDTQNVIVTGHSDGVVRFWRMEFLQVPETPAPEPVEDLEMQEGCPEAQIGQQAQDDDSSDSETEEPSVSQDPKDTSSQPSSTSHRPRAASCRATATWCTDSGSDDSRRWSDQLSLDEKDGFIFVNYSEGQTRAHLQGPLAHPHPNPIEARSYSRLKPGYRWERQLVFRSKLTMHTAFDRKDNTHPAEVTALGVSKDHSRILVGDSRGRVFSWSVSDQPGRSAADHWVKDEGGDSCSGCSVRFSLTERRHHCRNCGQLFCQKCSRFQSEIKRLKISSPVRVCQNCYYSLQHERGAEDGPRNCEGHHHHHH,not soluble
20,MSLNATIVDIARRANVTNITVSRTFNQPGLVKQETREKIHAIAKELNYVPNAFAQGLKRSSSQIIGIVTSSMYNPFYSELIQTVSRIARTQCYQIMLFDTDGSEEAEMEAIQALFGYKACGILLSPVRDDKNYQPAYLDLAETYRVPLILIDRDIYNRQLSGVFLNNKEIGLLAGKYLSEQPERKMLIIGGPAESEITRVRIEGIINALENKKNDVHIINGDYDFISQEAAVRDYLSSPQNQPDYIIGLNGILTLGAIAICHELKIYNNIKFFSIDEPPKAADYGLHIAGVYHDTQMLGEIAAELLFNAIKKPHNDQAVRREFFTGSLLTHEGHHHHHH,soluble
21,MSLNDNPAWFNNPRKRAIPNSIIKRSNGQSLSPVRSDSADVPAFSNSNGFNNVTFGSKKDPRILKNVSPNDNNSANNNAHSSDLGTVVFDSNEAPPKTSLADWQKEDGIFSSKTDNIEDPNLSSNITFDGKPTATPSPFRPLEKTSRILNFFDKNTKTTPNTASSEASAGSKEGASTNWDDHAIIIFGYPETIANSIILHFANFGEILEDFRVIKDFKKLNSKNMSKSPSLTAQKYPIYTGDGWVKLTYKSELSKSRALQENGIIMNGTLIGCVSYSPAALKQLASLKKSEEIINNKTSSEGHHHHHH,soluble
